Laboratory results from US20250289906A1, “MODULATION OF EXTRACELLULAR KINASE ACTIVITY AND FUNCTION FOR TREATMENT OF PAIN AND NEURODEGENERATIVE/NEUROIMMUNE DISEASE” (BOARD OF REGENTS, THE UNIVERSITY OF TEXAS SYSTEM, priority 2024, published 2025).

T1: EphB2 extracellular domain (Homo sapiens, UniProt P29323)
T1 construct: purified recombinant protein fragment with EphB2 extracellular domain (EphB2 (200 ng), active; Millipore); purchased Millipore
T1 sequence (P29323 19-543 limits assumed): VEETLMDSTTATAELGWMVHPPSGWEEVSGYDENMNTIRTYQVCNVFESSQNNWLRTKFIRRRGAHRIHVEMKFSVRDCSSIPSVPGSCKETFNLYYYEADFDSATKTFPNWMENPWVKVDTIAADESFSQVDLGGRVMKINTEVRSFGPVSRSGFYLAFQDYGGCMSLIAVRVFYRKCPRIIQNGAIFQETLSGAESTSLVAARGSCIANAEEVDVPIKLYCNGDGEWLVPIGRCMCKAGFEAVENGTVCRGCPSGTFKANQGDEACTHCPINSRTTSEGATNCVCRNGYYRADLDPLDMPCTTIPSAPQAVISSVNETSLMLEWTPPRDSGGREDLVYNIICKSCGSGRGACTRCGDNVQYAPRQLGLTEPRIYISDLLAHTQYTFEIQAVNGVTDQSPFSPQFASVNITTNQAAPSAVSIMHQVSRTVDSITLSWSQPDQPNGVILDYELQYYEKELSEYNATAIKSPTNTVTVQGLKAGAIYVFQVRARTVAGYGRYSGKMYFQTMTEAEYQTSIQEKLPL

T2: EphB2-NMDAR interaction (Homo sapiens, UniProt P29323)
T2 sequence (P29323 19-1055): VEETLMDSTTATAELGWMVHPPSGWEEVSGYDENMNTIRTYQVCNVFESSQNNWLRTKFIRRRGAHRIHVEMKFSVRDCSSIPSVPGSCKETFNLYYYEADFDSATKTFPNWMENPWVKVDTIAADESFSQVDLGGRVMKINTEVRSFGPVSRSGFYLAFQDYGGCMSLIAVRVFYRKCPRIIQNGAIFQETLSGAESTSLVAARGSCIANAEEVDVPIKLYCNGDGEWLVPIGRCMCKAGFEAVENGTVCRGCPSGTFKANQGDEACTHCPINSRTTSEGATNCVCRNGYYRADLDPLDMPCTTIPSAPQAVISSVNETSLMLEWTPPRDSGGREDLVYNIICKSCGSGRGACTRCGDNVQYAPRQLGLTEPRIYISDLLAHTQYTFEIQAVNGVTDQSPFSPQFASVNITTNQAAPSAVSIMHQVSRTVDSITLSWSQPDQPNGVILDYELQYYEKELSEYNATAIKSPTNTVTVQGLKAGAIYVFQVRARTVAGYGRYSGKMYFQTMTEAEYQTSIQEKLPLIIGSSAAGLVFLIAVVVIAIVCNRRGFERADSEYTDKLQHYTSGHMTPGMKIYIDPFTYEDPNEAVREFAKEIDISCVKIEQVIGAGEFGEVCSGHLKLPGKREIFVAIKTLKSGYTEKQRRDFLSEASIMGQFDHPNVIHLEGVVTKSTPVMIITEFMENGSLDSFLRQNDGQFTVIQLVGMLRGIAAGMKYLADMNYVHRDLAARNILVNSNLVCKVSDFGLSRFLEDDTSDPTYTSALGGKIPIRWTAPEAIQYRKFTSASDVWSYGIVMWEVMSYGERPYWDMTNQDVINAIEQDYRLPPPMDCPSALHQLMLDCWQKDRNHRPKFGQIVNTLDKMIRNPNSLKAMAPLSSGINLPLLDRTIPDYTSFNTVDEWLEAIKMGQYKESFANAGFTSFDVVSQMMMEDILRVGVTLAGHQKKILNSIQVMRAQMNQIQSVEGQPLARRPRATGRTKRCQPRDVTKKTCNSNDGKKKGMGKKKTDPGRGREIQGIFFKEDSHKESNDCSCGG

B1: VLK: active recombinant Vertebrate Lonesome Kinase (VLK/PKDCC), GST-tagged, purified from BL21 cells (protein)
chain: PRPGQSPEPSPAPGPGRRGGRGELARQIRARYEEVQRYSRGGPGPGAGRPERRRLMDLAPGGPGLPRPRPPWARPLSDGAPGWPPAPGPGSPGPGPRLGCAALRNVSGAQYMGSGYTKAVYRVRLPGGAAVALKAVDFSGHDLGSCVREFGVRRGCYRLAAHKLLKEMVLLERLRHPNVLQLYGYCYQDSEDIPDTLTTITELGAPVEMIQLLQTSWEDRFRICLSLGRLLHHLAHSPLGSVTLLDFRPRQFVLVDGELKVTDLDDARVEETPCAGSTDCILEFPARNFTLPCSAQGWCEGMNEKRNLYNAYRFFFTYLLPHSAPPSLRPLLDSIVNATGELAWGVDETLAQLEKVLHLYRSGQYLQNSTASSSTEYQCIPDSTIPQEDYRCWPSYHHGSCLLSVFNLAEAVDVCESHAQCRAFVVTNQTTWTGRQLVFFKTGWSQVVPDPNKTTYVKASG

Experiments:
mice [1] = test: Intrathecal administration, von Frey mechanical withdrawal thresholds; type: in vivo, mouse
Protocol: Behavior. Mechanical Withdrawal Thresholds were determined using von Frey Filament testing, following the method of (48). Animals were habituated to plexiglass chambers (11.4×7.6×7.6 cm) suspended on wire mesh racks. Baseline withdrawal thresholds were measured before experimental treatments, and subsequent testing was done at various timepoints indicated in each figure. Mechanical sensitivity was determined by applying von Frey filaments to the plantar aspect of the hind paws, and a response was indicated by flicking or withdrawal of the paw. For mice subjected to hindpaw incision surgeries, filaments were instead applied to the heel of the hindpaw near the site of injury but avoiding scar tissue.
(§1) Intrathecal injections were performed as previously described under isoflurane anesthesia (6). Drugs were administered in a 5 μL volume with a Hamilton syringe. Drugs were diluted in sterile saline. Heat denaturation was done by heating proteins at 70° C. for 30 mins. VLK, KD-VLK, DIA1, FAM69c and denatured controls were administered at concentrations of 0.1 mg/mL PAP was administered at 250 mU (12). APV was administered at 0.2 mg/mL.

mice [2] = test: Intrathecal administration, Mouse Grimace Scale scoring; type: in vivo
Protocol: Mouse grimace scoring was conducted using the Mouse Grimace Scale (MGS) described by (49). After acclimating to the suspended plexiglass chambers for an hour, mice were scored according to the MGS by blinded experimenters at baseline and post treatment time points which are indicated in each figure. The grimace scores were averaged by group at each time point and plotted respectively.
as §1

neuronal cFos expression = test: cFos/NeuN staining of lumbar spinal cord dorsal horn after intrathecal administration; type: in vivo, mouse
Protocol: cFos and NeuN staining of free-floating tissue sections. Adult mice were euthanized by isoflurane inhalation. Lumbar spinal cords were dissected and drop fixed in 10% formalin for 2 hours, cryoprotected, embedded in OCT (Fisher #1437365) and frozen on dry ice. Tissues were cryostat sectioned at […]. Tissues were blocked in 0.1M Phosphate buffer with 10% Normal Goat Serum and 0.3% Triton-X and incubated in cFos and NeuN primary antibodies for 48 hours at 4° C. Secondary antibodies were incubated for 2 hours at room temperature. Sections were slide mounted and cover slipped with Prolong Gold Antifade. Images were taken on an Olympus Fluoview FV1000 confocal microscope at 20× magnification. cFos^+ cell counts were carried out using Imaris software.
as §1

[3] = biological target: T1, EphB2 extracellular domain; test: In vitro cell-free kinase assay; type: biochemical; conditions: 100 ng kinase, 200 ng EphB2 ectodomain, ATP, 37° C., 30 min
Protocol: In vitro Kinase assay. For the in vitro kinase assay purified recombinant protein fragment with EphB2 extracellular domain (EphB2 (200 ng), active; Millipore) and active VLK (100 ng), VLK-KD (100 ng), Fam69C (100 ng), DIA1 (100 ng) was used. The kinase reaction was started by adding 10 mM MnCl2, 10 mM MgAc, and 100 μM ATP in ACSF buffer. After 30 min of incubation at 37° C., phosphorylated proteins were separated by SDS-PAGE and analyzed by western blotting with anti-phosphotyrosine antibody (PY99) and EphB2. This protocol was also previously described (6)

EphB2-NMDAR interaction = biological target: T2, EphB2-NMDAR interaction; test: Proximity ligation assay (PLA) of EphB2-NMDAR in transfected HEK293T cells; type: cell-based; conditions: non-permeabilized HEK293T cells, 100 ng recombinant protein, 45 minutes
Protocol: Recombinant protein—HEK293T cells were treated with 100 ng recombinant VLK, Fam69C, or DIA1. Synaptosomes were treated with 100 ng recombinant VLK. 1 mM ATP (Cat #A9187; Sigma) was applied as indicated. Recombinant PAP treatment was applied at 100 ng.
Proximity Ligation Assay (PLA). As previously described, PLA experiments on HEK293T cells, mouse brain, and human spinal cord synaptosomes were performed (4). Synaptosome PLA combined with vGlut1 immunostaining was also previously described (4).

[4] = tested on: endogenous EphB2-NMDAR interaction; test: EphB2/GluN1 co-immunoprecipitation in untransfected cultured cortical neurons; type: cell-based; conditions: untransfected rat cortical neurons, 45 min
Protocol: Primary neuronal culture and transfection. Primary neuronal cultures were derived from embryonic day 17-18 (E17-18) rat cerebral cortex and maintained as described previously (4, 6). 8×10^6 neurons were plated for 10 cm dishes and 1×10^6 neurons were plated per well of 6 well dishes for biochemical assays. 2×10^5 neurons were plated on glass bottom dishes for live cell imaging experiments. As previously described, neuronal cultures were transfected using Lipofectamine 2000 (4, 6).
Western Blotting, Immunoprecipitation (IP) and Co-IP. HEK293T cells and cultured neurons were lysed in RIPA buffer to generate protein lysates. Cortices of postnatal day 35 (P35) transgenic mice Pkdcc^flox/flox CaMKII^Cre/+ and its WT littermate controls were also lysed using RIPA buffer and an equal amount of protein was used to perform IP. Pooled dorsal horns from Pkdcc^flox/flox Pirt^Cre/+ uninjured mice and their WTlittermate controls were lysed in RIPA. Following lysis, an additional Percoll gradient spin was carried out to remove myelin and unwanted cellular debris (37) and an equal amount of protein was used to perform IP. For conditioned ACSF IP, ACSF was filtered through a […] syringe filter (Millipore, cat #SLGV004SL) and incubated with antibody for 2 h at 4° C. followed by addition of Protein-G beads and incubation overnight at 4° C. […]

[5] = agent given intrathecally before or together with VLK
[6] = intrathecal, 0.1 mg/mL in 5 μL, kinase given alone

| Molecule | VLK-induced mechanical sensitivity (mice [1]; [5]) | VLK-induced grimacing (mice [2]; [5]) | VLK-induced neuronal cFos expression (neuronal cFos expression; VLK+AP5 intrathecal) | mechanical thresholds (von Frey) (mice [1]; [6]) | tyrosine phosphorylation of EphB2 ectodomain [3] | grimacing (grimace scores, affective pain) (mice [2]; [6]) | EphB2-NMDAR interaction on the cell surface (PLA) (EphB2-NMDAR interaction; listed as rVLK) | EphB2-NMDAR interaction on the cell surface (PLA) (EphB2-NMDAR interaction; listed as recombinant VLK) | endogenous EphB2-NMDAR interaction (co-IP GluN1 with EphB2) [4] | neuronal cFos expression (cFos+ cells) (neuronal cFos expression; intrathecal VLK alone) |
| --- | --- | --- | --- | --- | --- | --- | --- | --- | --- | --- |
| NC(CCCP(=O)(O)O)C(=O)O (stereo not shown) [AP5, reference compound] | blocked the VLK-induced pain phenotype | blocked the VLK-induced pain phenotype | blocked | – | – | – | – | – | – | – |
| B1 | – | – | – | sharp drop in mechanical thresholds | unique capacity to phosphorylate the EphB2 ectodomain | increased grimacing | induces the EphB2-NMDAR interaction on the cell surface | induced the EphB2-NMDAR interaction on the cell surface | induces the endogenous EphB2-NMDAR interaction | significant increase in neuronal cFos expression |
